Measured values published in article PMC6297349, “The ASCIZ-DYNLL1 axis promotes 53BP1-dependent non-homologous end joining and PARP inhibitor sensitivity” (Nature Communications, 2018).

Biological target: the molecule itself
Assay: SEC; equal concentrations of TALON IMAC eluate fractionated over a Superdex S200 column (Supplementary Fig. 2a)

B1: Smt3-His6-tagged wild type 53BP1 fragment (amino acids 1131–1292) (domain or fragment, UniProt Q12888 1131-1292, looked up)
chain: GRSTNKENPSKALIERPSQNNIGIQTMECSLRVPETVSAATQTIKNVCEQGTSTVDQNFGKQDATVQTERGSGEKPVSAPGDDTESLHSQGEEEFDMPQPPHGHVLHRHMRTIREVRTLVTRVITDVYYVDGTEVERKVTEETEEPIVECQECETEVSPSQT
notes: No cleavage of the tags is described; the IMAC eluate went onto the Superdex S200 column; also called LC8-OD; source: E. coli BL21(DE3), pET-17b, purified (TALON IMAC column)
binding result: binds
